Patent US20080274118A1 (Novartis, published 2008)

Tests used:
[1] = target: T1, human CD40, soluble or recombinant (ELISA, Biacore) (human, UniProt P25942 21-193, limits assumed); assay: Biacore (method named in paragraph 140)
T1 construct: also called soluble CD40; recombinant CD40

[2] = target: T2, human CD40, cell-surface (on human B cells, monocytes and other CD40-expressing cells) (human, UniProt P25942 20-277); assay: cell-based or functional assay
[3] = target: T2, human CD40, cell-surface (on human B …); assay: cell-based or functional assay; remark: listed apart in the source

T2 sequence (P25942 20-277): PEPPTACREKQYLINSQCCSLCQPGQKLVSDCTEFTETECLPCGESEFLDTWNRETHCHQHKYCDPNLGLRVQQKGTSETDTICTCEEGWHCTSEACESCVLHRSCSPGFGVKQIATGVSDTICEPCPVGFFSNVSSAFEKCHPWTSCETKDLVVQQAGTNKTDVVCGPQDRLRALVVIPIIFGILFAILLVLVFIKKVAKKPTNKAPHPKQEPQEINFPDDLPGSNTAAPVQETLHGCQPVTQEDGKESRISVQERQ
T1 sequence (P25942 21-193 limits assumed): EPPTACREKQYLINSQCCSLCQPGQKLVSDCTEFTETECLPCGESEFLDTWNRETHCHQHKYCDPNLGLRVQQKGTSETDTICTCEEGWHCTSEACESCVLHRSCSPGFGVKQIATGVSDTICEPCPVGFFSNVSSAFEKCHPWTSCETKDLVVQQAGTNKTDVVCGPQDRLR

B1: CHIR-12.12 fully human anti-CD40 monoclonal antibody (antibody, V domains shown)
VH: QVQLVESGGGVVQPGRSLRLSCAASGFTFSSYGMHWVRQAPGKGLEWVAVISYEESNRYHADSVKGRFTISRDNSKITLYLQMNSLRTEDTAVYYCARDGGIAAPGPDYWGQGTLVTVSS
VL: DIVMTQSPLSLTVTPGEPASISCRSSQSLLYSNGYNYLDWYLQKPGQSPQVLISLGSNRASGVPDRFSGSGSGTDFTLKISRVEAEDVGVYYCMQARQTPFTFGPGTKVDIRR
notes: also called 153.8E2.D10.D6.12.12
- Kd [1]: 0.5 nM

B2: CD40L on formaldehyde-fixed transfected CHO cells (ligand)
chain: MIETYNQTSPRSAATGLPISMKIFMYLLTVFLITQMIGSALFAVYLHRRLDKIEDERNLHEDFVFMKTIQRCNTGERSLSLLNCEEIKSQFEGFVKDIMLNKEETKKENSFEMQKGDQNPQIAAHVISEASSKTTSVLQWAEKGYYTMSNNLVTLENGKQLTVKRQGLYYIYAQVTFCSNREASSQAPFIASLCLKSPGRFERILLRAANTHSSAKPCGQQSIHLGGVFELQPGASVFVNVTDPSQVSHGTGFTSFGLLKL
- MCP-1 secretion, normal B cells, Donor 1 (folds of induction over background) [2]: 5.5 fold
- MCP-1 secretion, normal B cells, Donor 3 (folds of induction over background) [2]: 1.7 fold
- MIP-1beta secretion, normal B cells, Donor 1 (folds of induction over background) [2]: 2.2 fold
- MIP-1beta secretion, normal B cells, Donor 2 (folds of induction over background) [2]: 2.6 fold
- MIP-1beta secretion, normal B cells, Donor 3 (folds of induction over background) [2]: 17.8 fold
- hIL-6 secretion, normal B cells, Donor 1 (folds of induction over background) [2]: 5.7 fold
- hIL-6 secretion, normal B cells, Donor 2 (folds of induction over background) [2]: 3.8 fold
- hIL-6 secretion, normal B cells, Donor 3 (folds of induction over background) [2]: 20.5 fold
- hIL-8 secretion, normal B cells, Donor 1 (folds of induction over background) [2]: 7.7 fold
- hIL-8 secretion, normal B cells, Donor 2 (folds of induction over background) [2]: 14.7 fold
- hIL-8 secretion, normal B cells, Donor 3 (folds of induction over background) [2]: 49.3 fold
- hIL-10 secretion, normal B cells, Donor 1 (folds of induction over background) [2]: 3.6 fold
- hIL-10 secretion, normal B cells, Donor 3 (folds of induction over background) [2]: 3.6 fold
- hTNF-alpha secretion, normal B cells, Donor 1 (folds of induction over background) [2]: 3.7 fold
- hTNF-alpha secretion, normal B cells, Donor 2 (folds of induction over background) [2]: 4.8 fold
- hTNF-alpha secretion, normal B cells, Donor 3 (folds of induction over background) [2]: 22.8 fold
- MCP-1 secretion, monocytes, Donor 1 (folds of induction over background) [3]: 290 fold
- MIP-1beta secretion, monocytes, Donor 1 (folds of induction over background) [3]: 162 fold
- hIL6 secretion, monocytes, Donor 1 (folds of induction over background) [3]: 77.9 fold
- hIL8 secretion, monocytes, Donor 1 (folds of induction over background) [3]: 124 fold
- hIL-10 secretion, monocytes, Donor 1 (folds of induction over background) [3]: 4.2 fold
- hTNF-alpha secretion, monocytes, Donor 1 (folds of induction over background) [3]: 13.8 fold

B3: CHIR-5.9 fully human anti-CD40 monoclonal antibody (antibody, V domains shown)
VH: EVQLVQSGAEVKKPGESLKISCKGSGYSFTSYWIGWVRQMPGKGLEWMGIIYPGDSDTRYSPSFQGQVTISADKSISTAYLQWSSLKASDTAMYYCARGTAAGRDYYYYYGMDVWGQGTTVTVSS
VL: AIVMTQPPLSSPVTLGQPASISCRSSQSLVHSDGNTYLNWLQQRPGQPPRLLIYKFFRRLSGVPDRFSGSGAGTDFTLKISRVEAEDVGVYYCMQVTQFPHTFGQGTRLEIKR
notes: also called mAb CHIR-5.9; 131.2F8.5.9
- Kd [1]: 12 nM
